The text below walks through data of US20210332110A1 (ROCKEFELLER UNIVERSITY, published 2021).

In this assay the target is Spike (S) protein of authentic SARS-CoV-2, strain USA-WA1/2020 (SARS-CoV-2, UniProt P0DTC2 14-1273). Kind of assay: cell-based or functional assay.

B1: C121 (antibody, V domains shown)
VH: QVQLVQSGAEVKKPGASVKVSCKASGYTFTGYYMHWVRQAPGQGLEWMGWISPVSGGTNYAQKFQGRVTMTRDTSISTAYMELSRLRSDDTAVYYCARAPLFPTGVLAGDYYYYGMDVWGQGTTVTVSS
VL: QSALTQPASVSGSPGQSITISCTGTSSDVGSYNLVSWYQQHPGKAPKLMIYEGSKRPSGVSNRFSGSKSGNTASLTISGLQAEDEADYYCCSYAGSSTLVFGGGTKLTVL
B1: the “IC50, neutralization of authentic SARS-CoV-2” value is 1.64 ng/mL.

B2: C144 (antibody, V domains shown)
VH: EVQLVESGGGLIQPGGSLRLSCAASGFTVSNNYMSWVRQAPGKGLEWVSVIYSGGSTYYADSVKGRFTISRDKSKNTLYLQMNRLRAEDTAVYYCAREGEVEGYNDFWSGYSRDRYYFDYWGQGTLVTVSS
VL: QSALTQPASVSGSPGQSITISCTGTSSDVGGYNYVSWYQQHPGKAPKLMIYDVSNRPSGVSNRFSGSKSGNTASLTISGLQAEDEADYYCSSYTSSSTRVFGTGTKVTVL
As for B2, the “IC50, neutralization of authentic SARS-CoV-2” value is 2.55 ng/mL.
